According to patent US10485196, “Rice plants with altered seed phenotype and quality” (THE INSTITUTE OF GENETICS AND DEVELOPMENTAL BIOLOGY CHINESE …):

What was measured:
Settings in all cases: label: biotin 3'
OsSPL16 (GW8) [1] = target: T1, OsSPL16 (GW8) (Oryza sativa, UniProt Q6YZE8 Q6YZE8:1-455); assay: EMSA; competed by 10-50x cold GTAC probe; probe assignment from Table 9
T1 sequence: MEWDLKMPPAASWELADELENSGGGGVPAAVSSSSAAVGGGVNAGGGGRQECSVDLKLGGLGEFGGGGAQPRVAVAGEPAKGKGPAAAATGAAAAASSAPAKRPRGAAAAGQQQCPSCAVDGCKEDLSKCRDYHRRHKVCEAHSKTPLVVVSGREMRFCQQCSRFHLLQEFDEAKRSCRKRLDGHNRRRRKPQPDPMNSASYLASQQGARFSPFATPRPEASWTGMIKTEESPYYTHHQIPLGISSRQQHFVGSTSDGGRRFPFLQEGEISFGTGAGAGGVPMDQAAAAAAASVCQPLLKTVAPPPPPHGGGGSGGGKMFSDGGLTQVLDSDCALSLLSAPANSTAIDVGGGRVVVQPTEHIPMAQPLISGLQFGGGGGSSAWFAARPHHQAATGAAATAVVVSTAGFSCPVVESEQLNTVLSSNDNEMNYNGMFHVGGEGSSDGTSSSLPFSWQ

OsSPL16 (GW8) [2] = target: T1, OsSPL16 (GW8); assay: EMSA; mutation of GTAC abolished affinity; probe assignment from Table 9
Protocol: FIG. 10 The DNA fragment (F8) containing two […] motifs (a) or two mutated ATAC motifs (b) was incubated with GST-OsSPL16 as indicated. Competition for OsSPL16 binding was performed with 10×, 20×, 30× and 50× cold probes containing the GTAC motif, respectively.

OsSPL16 (GW8) [3] = target: T1, OsSPL16 (GW8); assay: EMSA; competed by 10-50x cold GTAC probe; probe assignment from Table 9; remark: listed apart in the source
From the text: FIG. 4. OsSPL16 negatively regulates GW7 expression. (a) Effect of OsSPL16/GW8 on transcript abundance of GW7 in young panicles. Transcription relative to the level of NIL-GW8^HJX74 plants set to be one. Data shown as mean±s.e.m (n=3). (b) Grain size and shape formed by transgenic NIL-gw8 Basmati plants. Scale bar: 2 mm. (c) ChIP assays. The diagram depicts the putative GW7 promoter and regions of it used for ChIP-PCR analysis of extracts from young panicle of transgenic NIL-gw8 Basmati plants carrying pActin::myc-OsSPL16 construct. Data shown as mean±s.e.m (n=3). (d) EMSA assays. The GTAC motifs-containing DNA fragment (F8 shown in c) of the GW7 promoter was incubated with GST-OsSPL16 as indicated. Competition for OsSPL16 binding was performed with 10×, 20×, 30× and 50× cold probes containing the GTAC motifs, respectively. (e) OsSPL16 represses transcription of the GW7 gene promoter. Relative luciferase activity was monitored in rice protoplasts co-transfected with the different effector and reporter constructs. Mock: co-transfected with reporter constructs and an empty effector construct; negative control: co-transfected with effector construct and an empty reporter construct set to be one. Data shown as mean±s.e.m (n=3). A Student's t-test was used to generate the P values. (f) An 11 bp deletion and 18 bp insertion found in close proximity to the GTAC motifs in the GW7TFA allele. […]

B1: GTAC motif probe (T) (dsDNA)
DNA 1: TAGTGTACGTACCTCTTAGTGTACGTACCTCTTAGTGTACGTACCTCT
DNA 2: AGAGGTACGTACACTAAGAGGTACGTACACTAAGAGGTACGTACACTA
Does B1 bind (OsSPL16 (GW8) [1])?
Result: binds

B2: mutated GTAC motif probe (Z) (dsDNA)
DNA 1: TAGTGTGCGTGCCTCTTAGTGTGCGTGCCTCTTAGTGTGCGTGCCTCT
DNA 2: AGAGGCACGCACACTAAGAGGCACGCACACTAAGAGGCACGCACACTA
Does B2 bind (OsSPL16 (GW8) [2])?
Result: no binding

B3: GW7 promoter F8 fragment probe (HJX1) (dsDNA)
DNA 1: CCATTGACACACCATACCACATCTCATCTCACGCGTCCCAAAGAAAGTGATAGTGTACGTACC
DNA 2: GGTACGTACACTATCACTTTCTTTGGGACGCGTGAGATGAGATGTGGTATGGTGTGTCAATGG
Does B3 bind (OsSPL16 (GW8) [3])?
Result: binds
